Measurements: patent publication US8058046B2, “Sesquiterpene synthases from patchouli” (Firmenich SA, priority 2003, dated 2011)

Key:
[1] = Enzyme assay: conversion of FPP to sesquiterpenes by recombinant sesquiterpene synthase, GC / GC-MS analysis; type: biochemical; conditions: FPP as substrate; for main (major) sesquiterpene product formed: crude protein extract from E. coli expressing the recombinant synthase, GC-MS and retention index
Description: In a standard protein expression experiment, the expression plasmids containing the sesquiterpene synthase cDNAs as well as the empty plasmid (for negative control) were transformed into the BL21(DE3) or the BL21 STAR™ (DE3) E. coli cells (Novagen). Single colonies of transformed E. coli were used to inoculate 5 ml LB medium. After 5 to 6 hours of incubation at 37° C., the cultures were transferred to a 20° C. incubator and left 1 hour for equilibration. Expression of the protein was then induced by addition of 0.5 mM IPTG and the culture incubated over-night at 20° C. The next day, the cells were collected by centrifugation, resuspended in 0.5 ml Extraction Buffer (50 mM MOPSO pH 7, 5 mM DTT, 10% glycerol) and sonicated 3 times 30 s. The cell debris were sedimented by centrifugation 30 min at 18,000 g and the supernatant containing the soluble proteins was recovered. The expression of the sesquiterpene synthases was evaluated by separation of the protein extract on a SDS-PAGE, staining with coomassie blue and comparison to protein extract obtained from cells transformed with the empty plasmid.
The enzymatic assays were performed in Teflon sealed glass tubes using 50 to 100 μl of protein extract in a final volume of 1 mL Extraction Buffer supplemented with 15 mM MgCl2 and 100 to 250 μM FPP (Sigma). The medium was overlaid with 1 ml pentane and the tubes incubated over-night at 30° C. The pentane phase, containing the sesquiterpenes, was recovered and the medium extract with a second volume of pentane. The combined pentane fractions were concentrated under nitrogen and analyzed by Gas Chromatography on a on a Hewlett-Packard 6890 Series GC system using a 0.25 mm inner diameter by 30 m SPB-1 (Supelco) capillary column. The carrier gas was He at constant flow of 1.6 ml/min. Injection was done in splitless mode with the injector set at 200° C. and the oven programmed from 100° C. (0 min hold) at 7.5° C./min to 200° C. (0 min hold) followed by 20° C./min to 280° C. (2 min hold). Detection was made with a flame ionization detector. Compound identification was based on retention time identity with authentic standards when available. For confirmation of the products identities, samples were analyzed by combined capillary GC-MS using a Hewlett-Packard 6890 GC-quadrupole mass selective detector system, equipped with a 0.25 mm inner diameter by 30 m SPB-1 (Supelco) capillary column. The oven was programmed from 80° C. (0 min hold) to 280° C. at 7° C. at a constant flow of 1.5 ml/min He. The spectra were recorded at 70 eV with an electron multiplier voltage of 2200V. Retention time of the enzyme products were compared to the retention time of authentic standard, or the Kovats retention index was calculated and compared to published data (Joulain, D., and König, W. A. The Atlas of Spectral Data of Sesquiterpene Hydrocarbons, EB Verlag, Hamburg, 1998).
For the biochemical characterization of the sesquiterpene synthases for which the full-length cDNA was isolated, the cDNA was ligated into appropriate expression plasmids. This plasmid were used to transform E coli cells and after expression of the recombinant proteins, the E coli proteins were extracted and used to evaluate the biochemical conversion of FPP to sesquiterpene compounds (see Examples 5 and 6).

BL21 (DE3) E. coli cells = assay: In vivo sesquiterpene production assay in E. coli from the endogenous FPP pool; type: cell-based; conditions: E. coli cells expressing the synthase, 24 hours after 1 mM IPTG, pentane extract, GC / GC-MS; none with empty plasmid
Description: Experiments were performed using E. coli, to test the ability of the patchoulol synthase to synthesise, in vivo, sesquiterpenes from the endogenous FPP pool. Typical experiments for evaluation of in vivo sesquiterpene production are performed as follows. The expression plasmid containing the sesquiterpene synthase cDNA are transformed in BL21 (DE3) E. coli cells. Single colonies of transformed cells are used to inoculate 5 mL LB medium supplemented with the appropriate antibiotics. After 5 to 6 hours of incubation at 37° C., the culture were use to inoculate 100 ml TB medium supplemented with the appropriate antibiotics and the culture was incubated for 2 hours at 20° C. in a 250 mL shake flask. After 2 hours incubation, expression of the protein was induced by the addition of 1 mM IPTG. The cultures were left 24 hours and were then directly extracted twice with one volume of pentane. The two solvent fractions were recovered, combined and concentrated to 0.5 mL prior to GC-MS analysis. […] Patchoulol could be clearly detected by GC analysis of the culture extract, and no patchoulol was detected with cells transformed with the empty plasmid. The identity of the product could be confirmed by GC-MS, but the amount of sesquiterpene produced was relatively low and estimation of the quantities was not possible.

[2] = estimated by GC (flame ionization detection)

B1: PatTpsCF2: recombinant (+)-germacrene A synthase from patchouli, cDNA SEQ ID NO:3 (protein)
chain: MAVQISETVRPFANFSPNPSLWGDQFINHKSKTQQISRIYLEEIEGLKNEVKCMLTSTPEGKMADTVNLIDTLERLGVSYHFEKEIEEKMKHLFNLIKADNYKDHEGCDLYTDALHFRLFRQHGYPISSGIFNKWMDGNGKFKESIKSDAKGLLSLYEACCLRTHGDTLLDEALVFATASLKSMAANLASPLRKQVEHALFQHLHFGIPRVEARHFITFYEEEEHKNEMLLRFAKLDFNALQALHKEELSEISKWWKDLDLISKLPYARDRVVESYFWAVGVYYQPKYSRARIMLTKTIAMTAILDDTYDSYGTLEELDVLTKAIERWDIKEINGLPEYIKGFYKQVLKLYQQLEEELAKEGRSYAVYYAIEACKELARSYAVEAKWFKKGYLPGFEEYLINSLVTSTAGYLNIISFFGVESVTKEDFEWFSKKPRIAVATQIITRVIDDIATYEVEKEKGQSATGIDCYMKEHGVSKEKAMQRFYEMSTNAWKDINEEGLSWPSSFSRDIFVQLRNFSRMVDVTYGKNEDGYSKPEKILKPLIIALFVDQIKL
modifications: Pogostemon cablin
main (major) sesquiterpene product formed [1]: (+)-germacrene A
sesquiterpene synthase activity in recombinant E. coli protein extract ([1]; crude protein extract): easily detected

B2: PatTpsB15: another recombinant (−)-germacrene D synthase from patchouli, cDNA SEQ ID NO:4 (protein)
chain: MDLNEITSSSRPLANYHPNVWGDRFLLHEPEFTCQAGEKQLVEELKEEVRRELKEASNDYLRQLKMVDAIQRLGIEYLFEEEIDEALRNLLAKFENYCKDNHDMYATALSFRLLRQHGYKVSCEVFDKFKDGEDGFKVEEVMAVLELFEATHMRIHGEDVLDQAFVFTRNYLQSIHATLSNPIAKQVHNALNGYSCRRGMPRIEARKYIPIYEEYGCHHKALLKLAKLDFNLLQSMHKRELTQLYRWWKDLEMPTKLPYIRDRLVETYFWDMGFYFEPQYALARNILVKVQCLVSIFDDTFDAYGAFKELQLFKDAIDRWSISCLDELPEYMQIIYKLVLDVFEEIESHMIKQGTSYRLDYAREAIKIVIGGYFDEAKWREEEYKPRMEEYMKVATKSAAYLTLIIVSFVGMKNDIATPQAFQWVLSEPQIITASLALARLSNDLVGIEFEKERKYIATAVELYEEEHKVSKEEAVLELRHETESAWKEINEALLEPTTFATPILDRILNSARVLEVFYDKTDRYTHVDLELQNIIAQLYIHPIP
modifications: Pogostemon cablin
main (major) sesquiterpene product formed [1]: (−)-germacrene D
sesquiterpene synthase activity in recombinant E. coli protein extract ([1]; crude protein extract): relatively good metabolization of FFP

B3: PatTps177: recombinant patchoulol synthase from patchouli, cDNA SEQ ID NO:5 (protein)
chain: MELYAQSVGVGAASRPLANFHPCVWGDKFIVYNPQSCQAGEREEAEELKVELKRELKEASDNYMRQLKMVDAIQRLGIDYLFVEDVDEALKNLFEMFDAFCKNNHDMHATALSFRLLRQHGYRVSCEVFEKFKDGKDGFKVPNEDGAVAVLEFFEATHLRVHGEDVLDNAFDFTRNYLESVYATLNDPTAKQVHNALNEFSFRRGLPRVEARKYISIYEQYASHHKGLLKLAKLDFNLVQALHRRELSEDSRWWKTLQVPTKLSFVRDRLVESYFWASGSYFEPNYSVARMILAKGLAVLSLMDDVYDAYGTFEELQMFTDAIERWDASCLDKLPDYMKIVYKALLDVFEEVDEELIKLGAPYRAYYGKEAMKYAARAYMEEAQWREQKHKPTTKEYMKLATKTCGYITLIILSCLGVEEGIVTKEAFDWVFSRPPFIEATLIIARLVNDITGHEFEKKREHVRTAVECYMEEHKVGKQEVVSEFYNQMESAWKDINEGFLRPVEFPIPLLYLILNSVRTLEVIYKEGDSYTHVGPAMQNIIKQLYLHPVPY
modifications: Pogostemon cablin
amount of (+)-germacrene A among sesquiterpenes produced ([1]; estimated by GC (FID), detected as the thermal rearrangement product β-element): 1.6%
amount of (Z,E)-α-farnesene among sesquiterpenes produced [1, 2]: 1.35%
amount of (trans)-alpha-farnesene among sesquiterpenes produced [1, 2]: 3%
amount of (−)-patchoulol among sesquiterpenes produced [1, 2]: 39.1%
amount of alpha-guaiene among sesquiterpenes produced [1, 2]: 14%
amount of alpha-humulene among sesquiterpenes produced [1, 2]: 1.1%
amount of seychellene among sesquiterpenes produced [1, 2]: 4%
amount of trans-β-caryophyllene among sesquiterpenes produced [1, 2]: 4.5%
amount of trans-β-farnesene among sesquiterpenes produced [1, 2]: 3%
amount of α-bulnesene among sesquiterpenes produced [1, 2]: 8.6%
amount of α-patchoulene among sesquiterpenes produced [1, 2]: 8.9%
amount of γ-patchoulene among sesquiterpenes produced [1, 2]: 2.5%
amount of δ-patchoulene among sesquiterpenes produced [1, 2]: 2.1%
main (major) sesquiterpene product formed [1]: (−)-patchoulol
number of other sesquiterpenes produced besides the main product ([1]; crude protein extract, GC-MS): at least 18
in vivo production of patchoulol from endogenous FPP (BL21 (DE3) E. coli cells): produced patchoulol

B4: PatTpsBF2: recombinant (−)-germacrene D synthase from patchouli, cDNA SEQ ID NO:2 (protein)
chain: MELKNQSVAIISSNASRPLAHYHPDVWGDRFLLYKPNPSSEAGQKPVIEELKQQVRSELKEASNDYMRQLKMVDAIQRLGIESLFEEDIDNALKNLSENFDDYCKDKHDLYAIALSFRLLRQHGYRISCDVFDKLKDGEDGFKVPPSDEALAVVELLEATHLRIHGEVVLDRAFVFARIHLESIEANLNNPVAKQVHNALYGYSNRRGMQQVEARKYIPIYEQYASHHQGLLKLATLNFNLQQTMHKRELSELSRWYRDLEVPTMLPFARQRLVETYFWDAGVVFEPENDVARMILVKVQCLISFLDDTFDAYGSFEELQLFTDAINTWDVSCLDQLPDYMKIIYKALLGVFEVIEKLMIKQGTLYRLNYAKEAMKIVVGGYFVEAKWREEKSKPTTQEYMQVATKSAGYMTLIITSFLGMEANIATKEAFDWVLSEPDVMKAAITLARLTNDIVGIELEKERKHIATAVEVYEDEHKLSMQEAMVEIKNQIESGWKTINEAFLRPTKFPTPILYRILNYCRVLEVIYDKSDRYTHVDPALQDIIKQLYIHPIP
modifications: Pogostemon cablin
main (major) sesquiterpene product formed [1]: (−)-germacrene D
sesquiterpene synthase activity in recombinant E. coli protein extract ([1]; crude protein extract): could be detected

B5: PatTpsA: recombinant γ-curcumene synthase from patchouli (Pogostemon cablin), cDNA SEQ ID NO:1 (protein)
chain: MAAFTANAVDMRPPVITIHPRSKDIFSQFSLDDKLQKQYAQGIEALKEEARSMLMAAKSAKVMILIDTLERLGLGYHFEKEIEEKLEAIYKKEDGDDYDLFTTALRFRLLRQHQRRVPCSVFDKFMNKEGKFEEEPLISDVEGLLSLYDAAYLQIHGEHILQEALIFTTHHLTRIEPQLDDHSPLKLKLNRALEFPFYREIPIIYAHFYISVYERDDSRDEVLLKMAKLSYNFLQNLYKKELSQLSRWWNKLELIPNLPYIRDSVAGAYLWAVALYFEPQYSDVRMAIAKLIQIAAAVDDTYDNYATIREAQLLTEALERLNVHEIDTLPDYMKIVYRFVMSWSEDFERDATIKEQMLATPYFKAEMKKLGRAYNQELKWVMERQLPSFEEYMKNSEITSGVYIMFTVISPYLNSATQKNIDWLLSQPRLASSTAIVMRCCNDLGSNQRESKGGEVMTSLDCYMKQHGASKQETISKFKLIIEDEWKNLNEEWAATTCLPKVMVEIFRNYARIAGFCYKNNGDAYTSPKIVQQCFDALFVNPLRI
modifications: Pogostemon cablin
main (major) sesquiterpene product formed [1]: γ-curcumene
sesquiterpene synthase activity in recombinant E. coli protein extract ([1]; crude protein extract): low
